Here are results for three molecules from PMC2901902 (Nature, 2010).

Where no end group is shown, it is not given here.

Test [1] concerns the target DPF3b PHD12 with Ala mutation of Glu315 (human, UniProt Q92784-1 261-372, Ala mutation of Glu315). As to the kind of experiment: ITC. (In general: Isothermal titration calorimetry measures the heat released or taken up as one component is titrated into another.)
Test [2] addresses T1, DPF3b PHD12 with Ala mutation of Asp335 (human, UniProt Q92784-1 261-372, Ala mutation of Asp335).
T1 sequence (looked up): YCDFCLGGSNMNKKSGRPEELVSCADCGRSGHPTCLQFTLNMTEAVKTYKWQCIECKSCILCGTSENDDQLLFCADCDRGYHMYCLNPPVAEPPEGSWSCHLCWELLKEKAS
The experiment in a line: ITC.

A further test deals with DPF3b PHD12 D263A (human, UniProt Q92784-1 261-372, D263A). The experiment in a line: ITC.
Another test deals with DPF3b PHD12 F264A (human, UniProt Q92784-1 261-372, F264A). The experiment in a line: ITC.
Test [3] concerns the target human DPF3b tandem PHD finger (residues 261–372) (human, UniProt Q92784-1 261-372). The experiment in a line: NMR solution structure.

In the case of ARTKQTARKSTGGK(Ac)APRK (peptide, UniProt P68431 2-19, looked up) [histone H3 peptide acetylated at lysine 14 (residues 1–18)], the binding result in test [1] and in test [2] was “binds” in each case. On to ARTKQTARKSTGGKAPRK (peptide, UniProt P68431 2-19, looked up) [unmodified histone H3 peptide (residues 1–18)], for which the binding result with DPF3b PHD12 D263A and with DPF3b PHD12 F264A was “binds” throughout.

In the case of GLGKGGAK(Ac)RHRKVLR (peptide, UniProt P62805 10-24, looked up) [histone H4K16ac peptide (residues 9–23)], the binding result in test [3] is reported as “binds”.
